We go through 1 molecule from PMC10954691, “A structure-based designed small molecule depletes hRpn13^Pru and a select group of KEN box proteins” (Nature Communications, 2024).

The target of the assay is T1, hRpn13 Pru (1-150) (human, UniProt Q16186 1-150).
T1 construct: hRpn13 (proteasome subunit, gene ADRM1), Pru domain, residues 1-150; printed MW 17017.3 g/mol; also called hRpn13 Pru domain
Description: 19F NMR of the competing small molecule XL44; 25 or 50 uM hRpn2 (940-953) added to preincubated 50 uM XL44 and equimolar hRpn13 Pru; NMR buffer (20 mM sodium phosphate, 50 mM NaCl, 2 mM DTT, 10% DMSO-d6, pH 6.5), 10 °C. As to conditions: both partners purified.

T1 sequence (Q16186 1-150): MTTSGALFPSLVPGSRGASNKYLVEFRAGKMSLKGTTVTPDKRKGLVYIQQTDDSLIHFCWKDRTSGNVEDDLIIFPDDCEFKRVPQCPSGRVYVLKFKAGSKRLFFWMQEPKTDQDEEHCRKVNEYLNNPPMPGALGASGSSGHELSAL

B1: hRpn2 (940-953) (peptide, UniProt Q99460 940-953, looked up)
chain: QEPEPPEPFEYIDD
notes: hRpn2 (proteasome regulatory particle subunit), extreme C-terminus, residues 940-953; also called hRpn2 peptide; not shown: GST, N-terminal, cleaved
On to B1, for which the binding result is “binds”.
